Test results as given in US20220119490A1 (Genentech, published 2022).

Experiments:
Assay in all cases: cell surface interaction assay: query ECD tetramerised with fluorescent streptavidin on transfected cells, immunofluorescence
[1] = target: T1, PTPRT expressed on cells (human, UniProt O14522 26-1441)
T1 construct: whole, on cells
T1 sequence (looked up): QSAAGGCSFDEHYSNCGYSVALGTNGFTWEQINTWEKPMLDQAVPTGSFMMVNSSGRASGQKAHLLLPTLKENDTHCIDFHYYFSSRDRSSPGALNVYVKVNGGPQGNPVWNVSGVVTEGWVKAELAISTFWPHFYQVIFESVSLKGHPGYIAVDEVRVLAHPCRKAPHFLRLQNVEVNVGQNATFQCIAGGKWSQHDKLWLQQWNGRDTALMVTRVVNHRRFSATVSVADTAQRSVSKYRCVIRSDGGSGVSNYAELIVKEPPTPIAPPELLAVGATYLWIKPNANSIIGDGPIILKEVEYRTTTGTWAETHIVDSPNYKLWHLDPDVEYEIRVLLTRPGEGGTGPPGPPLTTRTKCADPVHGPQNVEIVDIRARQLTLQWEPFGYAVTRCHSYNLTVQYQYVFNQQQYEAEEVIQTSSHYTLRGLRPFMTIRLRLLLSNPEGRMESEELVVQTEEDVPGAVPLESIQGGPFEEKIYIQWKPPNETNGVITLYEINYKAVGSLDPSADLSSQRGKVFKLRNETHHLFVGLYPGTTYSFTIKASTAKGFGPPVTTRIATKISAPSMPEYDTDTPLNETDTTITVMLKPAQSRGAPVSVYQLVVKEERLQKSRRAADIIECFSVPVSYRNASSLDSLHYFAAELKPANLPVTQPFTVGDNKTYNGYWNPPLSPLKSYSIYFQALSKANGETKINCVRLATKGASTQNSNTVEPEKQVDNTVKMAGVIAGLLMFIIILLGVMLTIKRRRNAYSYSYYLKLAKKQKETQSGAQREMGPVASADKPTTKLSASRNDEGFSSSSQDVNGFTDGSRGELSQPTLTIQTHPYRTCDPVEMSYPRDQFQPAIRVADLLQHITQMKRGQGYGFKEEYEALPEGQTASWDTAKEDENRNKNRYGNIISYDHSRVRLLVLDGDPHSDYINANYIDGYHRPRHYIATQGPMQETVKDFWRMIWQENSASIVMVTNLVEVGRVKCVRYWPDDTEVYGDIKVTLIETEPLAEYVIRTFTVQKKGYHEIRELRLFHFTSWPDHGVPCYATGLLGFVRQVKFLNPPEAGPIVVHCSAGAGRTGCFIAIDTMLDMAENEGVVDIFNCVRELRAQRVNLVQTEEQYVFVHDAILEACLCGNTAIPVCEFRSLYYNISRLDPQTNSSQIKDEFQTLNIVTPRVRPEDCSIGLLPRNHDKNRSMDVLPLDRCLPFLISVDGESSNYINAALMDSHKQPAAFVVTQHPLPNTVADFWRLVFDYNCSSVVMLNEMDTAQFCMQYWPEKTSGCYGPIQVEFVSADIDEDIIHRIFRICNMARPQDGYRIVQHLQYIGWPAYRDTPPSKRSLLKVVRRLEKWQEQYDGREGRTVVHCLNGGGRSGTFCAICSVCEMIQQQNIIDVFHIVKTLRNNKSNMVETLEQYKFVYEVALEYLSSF
Text: (§1) FIG. 3H is a schematic showing the design of the cell surface interaction assay.
(§2) Experiments shown are representative of two independent assays. […] Scale bar=50 μm.

[2] = target: T2, PTPRO expressed on cells (human, UniProt Q16827 30-1216)
T2 construct: whole, on cells
T2 sequence (looked up): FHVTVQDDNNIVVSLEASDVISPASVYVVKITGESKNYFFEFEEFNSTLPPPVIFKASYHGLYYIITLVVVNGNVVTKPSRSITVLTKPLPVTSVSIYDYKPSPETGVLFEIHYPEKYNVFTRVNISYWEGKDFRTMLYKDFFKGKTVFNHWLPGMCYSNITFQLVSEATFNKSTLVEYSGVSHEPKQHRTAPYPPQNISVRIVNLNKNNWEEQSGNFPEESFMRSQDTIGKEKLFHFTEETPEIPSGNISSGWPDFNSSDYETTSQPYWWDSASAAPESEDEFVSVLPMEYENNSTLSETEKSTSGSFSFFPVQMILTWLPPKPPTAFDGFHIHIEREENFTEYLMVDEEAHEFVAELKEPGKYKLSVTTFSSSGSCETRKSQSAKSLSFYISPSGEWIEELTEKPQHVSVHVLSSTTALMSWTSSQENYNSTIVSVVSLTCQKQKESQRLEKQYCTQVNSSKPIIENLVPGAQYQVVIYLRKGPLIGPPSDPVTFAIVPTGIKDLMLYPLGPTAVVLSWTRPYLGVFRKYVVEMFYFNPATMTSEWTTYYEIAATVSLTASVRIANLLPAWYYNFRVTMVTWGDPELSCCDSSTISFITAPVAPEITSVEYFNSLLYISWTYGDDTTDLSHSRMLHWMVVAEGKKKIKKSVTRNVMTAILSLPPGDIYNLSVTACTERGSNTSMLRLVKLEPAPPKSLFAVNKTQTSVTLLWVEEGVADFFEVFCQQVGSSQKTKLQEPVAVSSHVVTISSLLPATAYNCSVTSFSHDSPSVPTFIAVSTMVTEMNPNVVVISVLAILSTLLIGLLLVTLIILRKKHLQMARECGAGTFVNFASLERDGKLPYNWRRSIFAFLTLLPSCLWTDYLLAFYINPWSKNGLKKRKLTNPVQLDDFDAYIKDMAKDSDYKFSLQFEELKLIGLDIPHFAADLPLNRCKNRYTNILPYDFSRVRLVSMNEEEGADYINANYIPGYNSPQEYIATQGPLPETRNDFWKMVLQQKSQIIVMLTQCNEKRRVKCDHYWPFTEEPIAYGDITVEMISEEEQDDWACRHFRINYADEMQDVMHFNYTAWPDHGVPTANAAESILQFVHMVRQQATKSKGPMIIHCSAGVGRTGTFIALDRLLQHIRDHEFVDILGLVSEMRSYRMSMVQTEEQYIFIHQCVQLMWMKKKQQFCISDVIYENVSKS
Text: as §1, §2

[3] = target: T3, PTPRZ1 expressed on cells (human, UniProt P23471 25-2315)
T3 construct: whole, on cells
T3 sequence (P23471 25-2315): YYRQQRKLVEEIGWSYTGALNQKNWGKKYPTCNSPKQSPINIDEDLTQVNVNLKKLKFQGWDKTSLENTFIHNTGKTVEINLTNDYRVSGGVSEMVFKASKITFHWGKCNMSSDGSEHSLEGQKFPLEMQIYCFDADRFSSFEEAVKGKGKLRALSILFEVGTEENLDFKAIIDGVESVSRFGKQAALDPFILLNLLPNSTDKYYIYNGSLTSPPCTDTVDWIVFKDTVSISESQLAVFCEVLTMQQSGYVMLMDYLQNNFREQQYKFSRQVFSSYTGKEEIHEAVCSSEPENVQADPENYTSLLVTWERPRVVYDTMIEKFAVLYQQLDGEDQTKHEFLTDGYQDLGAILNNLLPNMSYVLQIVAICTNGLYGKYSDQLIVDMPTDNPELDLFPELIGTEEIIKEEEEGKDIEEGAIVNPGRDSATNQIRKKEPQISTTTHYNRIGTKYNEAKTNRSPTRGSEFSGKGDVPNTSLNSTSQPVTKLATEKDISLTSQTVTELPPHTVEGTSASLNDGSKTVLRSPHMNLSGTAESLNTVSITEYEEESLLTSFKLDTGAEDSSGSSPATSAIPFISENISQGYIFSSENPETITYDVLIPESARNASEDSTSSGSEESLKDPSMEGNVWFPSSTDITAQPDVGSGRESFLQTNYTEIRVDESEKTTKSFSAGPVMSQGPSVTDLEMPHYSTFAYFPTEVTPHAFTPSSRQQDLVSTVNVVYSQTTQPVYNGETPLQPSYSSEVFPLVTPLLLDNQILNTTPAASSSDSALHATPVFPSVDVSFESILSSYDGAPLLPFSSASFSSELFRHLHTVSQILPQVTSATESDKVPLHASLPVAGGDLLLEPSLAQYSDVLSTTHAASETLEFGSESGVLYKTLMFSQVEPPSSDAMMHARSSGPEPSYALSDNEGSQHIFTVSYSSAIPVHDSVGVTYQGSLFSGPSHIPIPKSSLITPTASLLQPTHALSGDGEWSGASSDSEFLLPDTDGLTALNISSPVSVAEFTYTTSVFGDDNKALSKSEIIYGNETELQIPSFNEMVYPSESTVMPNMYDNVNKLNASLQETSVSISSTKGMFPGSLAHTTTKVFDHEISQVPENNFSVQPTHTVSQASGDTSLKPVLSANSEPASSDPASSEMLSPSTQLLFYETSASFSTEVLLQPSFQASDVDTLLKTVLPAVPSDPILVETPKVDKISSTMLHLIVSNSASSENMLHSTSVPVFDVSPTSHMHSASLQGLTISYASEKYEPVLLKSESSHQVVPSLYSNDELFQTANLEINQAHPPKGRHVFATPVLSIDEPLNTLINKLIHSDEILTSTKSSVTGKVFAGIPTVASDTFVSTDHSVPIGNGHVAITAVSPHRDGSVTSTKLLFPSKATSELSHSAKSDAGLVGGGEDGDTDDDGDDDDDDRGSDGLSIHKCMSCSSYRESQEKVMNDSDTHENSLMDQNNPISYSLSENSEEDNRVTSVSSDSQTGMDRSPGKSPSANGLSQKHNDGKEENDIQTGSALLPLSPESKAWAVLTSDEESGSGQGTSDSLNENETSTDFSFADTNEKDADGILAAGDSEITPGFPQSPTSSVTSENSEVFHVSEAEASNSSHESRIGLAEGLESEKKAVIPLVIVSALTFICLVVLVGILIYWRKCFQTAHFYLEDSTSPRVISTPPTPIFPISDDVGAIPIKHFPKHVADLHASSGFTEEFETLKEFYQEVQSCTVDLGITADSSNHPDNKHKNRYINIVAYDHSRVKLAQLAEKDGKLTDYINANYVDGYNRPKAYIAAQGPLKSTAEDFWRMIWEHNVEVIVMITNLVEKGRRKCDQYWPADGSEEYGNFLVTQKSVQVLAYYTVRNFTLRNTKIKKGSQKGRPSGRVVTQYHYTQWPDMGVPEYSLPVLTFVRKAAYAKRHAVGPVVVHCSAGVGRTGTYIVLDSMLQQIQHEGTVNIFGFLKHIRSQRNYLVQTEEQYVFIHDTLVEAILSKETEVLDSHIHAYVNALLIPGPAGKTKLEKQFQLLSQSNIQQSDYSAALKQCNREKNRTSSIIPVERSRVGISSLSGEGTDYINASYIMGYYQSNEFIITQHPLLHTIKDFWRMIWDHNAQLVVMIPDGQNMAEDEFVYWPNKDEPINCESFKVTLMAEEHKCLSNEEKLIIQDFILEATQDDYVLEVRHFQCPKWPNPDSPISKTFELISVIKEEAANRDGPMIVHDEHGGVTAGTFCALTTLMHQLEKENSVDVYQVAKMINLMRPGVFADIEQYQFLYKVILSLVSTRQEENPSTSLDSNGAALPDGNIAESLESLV
Text: as §1, §2

[4] = target: T4, PTPRM expressed on cells (human, UniProt P28827 21-1452)
T4 construct: whole, on cells
T4 sequence (P28827 21-1452): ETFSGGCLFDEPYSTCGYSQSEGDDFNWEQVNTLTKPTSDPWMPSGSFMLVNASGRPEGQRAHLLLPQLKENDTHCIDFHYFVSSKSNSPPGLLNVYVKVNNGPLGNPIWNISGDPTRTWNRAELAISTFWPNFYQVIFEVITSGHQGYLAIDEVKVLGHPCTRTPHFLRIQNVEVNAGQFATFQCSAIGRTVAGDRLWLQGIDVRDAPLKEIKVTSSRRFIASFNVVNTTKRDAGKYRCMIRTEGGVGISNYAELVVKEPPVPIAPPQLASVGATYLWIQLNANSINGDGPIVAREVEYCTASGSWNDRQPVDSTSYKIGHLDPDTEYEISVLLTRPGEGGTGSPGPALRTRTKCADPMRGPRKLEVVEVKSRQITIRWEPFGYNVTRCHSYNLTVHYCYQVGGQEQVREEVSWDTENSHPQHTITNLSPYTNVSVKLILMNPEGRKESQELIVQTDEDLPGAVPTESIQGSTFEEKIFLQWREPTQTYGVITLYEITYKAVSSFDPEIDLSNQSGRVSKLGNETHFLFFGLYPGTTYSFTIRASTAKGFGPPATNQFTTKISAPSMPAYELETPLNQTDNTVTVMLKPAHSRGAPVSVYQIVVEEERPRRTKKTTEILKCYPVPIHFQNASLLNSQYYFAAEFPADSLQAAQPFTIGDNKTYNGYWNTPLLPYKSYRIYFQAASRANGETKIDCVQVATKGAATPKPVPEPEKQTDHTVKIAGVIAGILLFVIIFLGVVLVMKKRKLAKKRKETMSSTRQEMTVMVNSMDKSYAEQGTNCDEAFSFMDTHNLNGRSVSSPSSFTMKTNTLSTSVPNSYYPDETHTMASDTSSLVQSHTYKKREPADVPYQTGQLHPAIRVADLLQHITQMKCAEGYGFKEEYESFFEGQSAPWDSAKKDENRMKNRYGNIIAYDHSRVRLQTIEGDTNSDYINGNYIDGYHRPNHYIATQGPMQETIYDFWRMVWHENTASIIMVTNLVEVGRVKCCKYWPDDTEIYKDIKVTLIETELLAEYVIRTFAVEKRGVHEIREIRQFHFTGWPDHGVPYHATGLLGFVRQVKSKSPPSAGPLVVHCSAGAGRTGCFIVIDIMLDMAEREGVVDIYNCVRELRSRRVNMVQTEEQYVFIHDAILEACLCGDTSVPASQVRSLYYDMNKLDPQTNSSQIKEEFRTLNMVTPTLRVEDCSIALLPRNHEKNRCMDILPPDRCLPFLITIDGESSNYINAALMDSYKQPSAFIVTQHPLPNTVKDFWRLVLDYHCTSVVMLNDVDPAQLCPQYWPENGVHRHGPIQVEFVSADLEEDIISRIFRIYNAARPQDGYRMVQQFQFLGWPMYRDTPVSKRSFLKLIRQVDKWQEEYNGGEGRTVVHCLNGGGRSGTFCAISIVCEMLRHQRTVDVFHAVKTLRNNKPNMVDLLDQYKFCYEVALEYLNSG
Text: as §1, §2

[5] = target: T5, PTPRG expressed on cells (human, UniProt P23470 20-1445)
T5 construct: whole, on cells
T5 sequence (P23470 20-1445): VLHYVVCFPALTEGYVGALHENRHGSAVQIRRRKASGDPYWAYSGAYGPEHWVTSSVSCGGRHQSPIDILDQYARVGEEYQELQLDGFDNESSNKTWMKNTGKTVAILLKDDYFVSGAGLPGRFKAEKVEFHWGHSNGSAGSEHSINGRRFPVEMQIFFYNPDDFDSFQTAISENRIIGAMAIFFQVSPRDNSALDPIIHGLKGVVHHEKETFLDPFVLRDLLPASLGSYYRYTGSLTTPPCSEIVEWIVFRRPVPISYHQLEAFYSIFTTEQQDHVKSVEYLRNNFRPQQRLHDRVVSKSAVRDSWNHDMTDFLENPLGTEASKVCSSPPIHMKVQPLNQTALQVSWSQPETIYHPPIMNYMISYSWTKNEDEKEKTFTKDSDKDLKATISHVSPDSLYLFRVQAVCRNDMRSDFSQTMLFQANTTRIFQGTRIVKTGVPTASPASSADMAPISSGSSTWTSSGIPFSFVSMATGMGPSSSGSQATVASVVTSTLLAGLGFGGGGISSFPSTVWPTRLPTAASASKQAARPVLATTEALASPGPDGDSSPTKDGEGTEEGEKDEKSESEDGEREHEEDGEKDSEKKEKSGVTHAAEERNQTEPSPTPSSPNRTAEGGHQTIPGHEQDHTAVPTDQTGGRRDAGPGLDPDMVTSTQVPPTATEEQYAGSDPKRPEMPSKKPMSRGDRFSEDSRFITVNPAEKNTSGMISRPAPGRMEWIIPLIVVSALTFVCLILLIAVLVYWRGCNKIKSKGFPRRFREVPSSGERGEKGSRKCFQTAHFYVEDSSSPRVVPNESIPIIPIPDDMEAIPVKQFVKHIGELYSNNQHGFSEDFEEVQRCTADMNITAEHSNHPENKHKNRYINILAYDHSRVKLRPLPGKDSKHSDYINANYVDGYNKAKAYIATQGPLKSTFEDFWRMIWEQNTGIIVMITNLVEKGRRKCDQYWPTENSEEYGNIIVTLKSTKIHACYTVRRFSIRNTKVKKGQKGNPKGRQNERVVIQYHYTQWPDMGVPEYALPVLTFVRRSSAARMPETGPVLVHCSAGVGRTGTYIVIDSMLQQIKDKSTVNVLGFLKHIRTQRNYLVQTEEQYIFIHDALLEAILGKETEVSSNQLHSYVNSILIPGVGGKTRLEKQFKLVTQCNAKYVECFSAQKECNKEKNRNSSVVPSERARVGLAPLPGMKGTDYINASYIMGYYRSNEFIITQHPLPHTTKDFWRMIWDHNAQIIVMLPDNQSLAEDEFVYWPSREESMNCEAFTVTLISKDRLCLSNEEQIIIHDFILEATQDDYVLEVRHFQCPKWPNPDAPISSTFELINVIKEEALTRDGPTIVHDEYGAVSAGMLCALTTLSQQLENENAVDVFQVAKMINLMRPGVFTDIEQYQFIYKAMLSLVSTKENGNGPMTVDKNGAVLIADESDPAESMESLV
Text: as §1, §2

binding result [1]: no binding
binding result [2]: no binding
binding result [3]: no binding
binding result [4]: no binding
binding result [5]: no binding
B1: LRFN5 extracellular domain (receptor, human, UniProt Q96NI6 18-529, looked up)
chain: QICPKRCVCQILSPNLATLCAKKGLLFVPPNIDRRTVELRLADNFVTNIKRKDFANMTSLVDLTLSRNTISFITPHAFADLRNLRALHLNSNRLTKITNDMFSGLSNLHHLILNNNQLTLISSTAFDDVFALEELDLSYNNLETIPWDAVEKMVSLHTLSLDHNMIDNIPKGTFSHLHKMTRLDVTSNKLQKLPPDPLFQRAQVLATSGIISPSTFALSFGGNPLHCNCELLWLRRLSREDDLETCASPPLLTGRYFWSIPEEEFLCEPPLITRHTHEMRVLEGQRATLRCKARGDPEPAIHWISPEGKLISNATRSLVYDNGTLDILITTVKDTGAFTCIASNPAGEATQIVDLHIIKLPHLLNSTNHIHEPDPGSSDISTSTKSGSNTSSSNGDTKLSQDKIVVAEATSSTALLKFNFQRNIPGIRMFQIQYNGTYDDTLVYRMIPPTSKTFLVNNLAAGTMYDLCVLAIYDDGITSLTATRVVGCIQFTTEQDYVRCHFMQSQFLGGTM
notes: extracellular domain; Streptavidin tetramer in cell assay; ECD-Fc prey in the variant screen; also called LFRN5
